Results: PMC5984625, “Dynamic structural states of ClpB involved in its disaggregation function” (Nature Communications, 2018)
Several values for one entry are separate records, joined by “and”; a condition that tells them apart may be missing. Equal entries are not always repeated. Values belong to the substance of their own block, whether it stands above or below them.

Experiments:
[1] = molecular target: ΔN-TClpB repressed mutant E423A (Thermus thermophilus); experiment: high-speed atomic force microscopy (HS-AFM); self-association; sample preincubated with 2 mM ATP at 55 °C for 1 min, adsorbed on bare mica, imaged at 25 °C in 50 mM MOPS pH 7.5, 20 mM KCl, 5 mM MgCl2 with ATP (10 μM to 2 mM for ΔN-TClpB, 0.5 mM for full length, 1 mM for the mutants; also 1 mM ATPγS or ADP)
[2] = molecular target: ΔN-TClpB hyperactive mutant Y494D (Thermus thermophilus); experiment: as above
[3] = molecular target: N-terminal deletion mutant of TClpB (ΔN-TClpB) (Thermus thermophilus); experiment: native MS; incubated at 55 °C with 2 mM ATP or ATPγS for 1 min, exchanged into 150 mM ammonium acetate pH 7.5 with 100 µM ATP or ATPγS at 4 °C; nanoflow electrospray
[4] = molecular target: N-terminal deletion mutant of TClpB (ΔN-TClpB) (Thermus thermophilus); experiment: AUC; sedimentation velocity, 20 °C, 42,000 rpm, 50 mM MOPS pH 7.5, 50 mM KCl, 5 mM MgCl2, 0.5 and 2.0 mg/mL protein, with 2 mM ATPγS (preincubated 55 °C 1 min)
[5] = molecular target: N-terminal deletion mutant of TClpB (ΔN-TClpB) (Thermus thermophilus); experiment: high-speed atomic force microscopy (HS-AFM); self-association; sample preincubated with 2 mM ATP at 55 °C for 1 min, adsorbed on bare mica, imaged at 25 °C in 50 mM MOPS pH 7.5, 20 mM KCl, 5 mM MgCl2 with ATP (10 μM to 2 mM for ΔN-TClpB, 0.5 mM for full length, 1 mM for the mutants; also 1 mM ATPγS or ADP)
[6] = molecular target: N-terminal deletion mutant of TClpB (ΔN-TClpB) (Thermus thermophilus); experiment: AUC; sedimentation velocity, 20 °C, 42,000 rpm, 50 mM MOPS pH 7.5, 50 mM KCl, 5 mM MgCl2, 0.5 and 2.0 mg/mL protein, with 20 mM ADP (preincubated 55 °C 1 min)
[7] = molecular target: N-terminal deletion mutant of TClpB (ΔN-TClpB) (Thermus thermophilus); experiment: AUC; sedimentation velocity, 20 °C, 42,000 rpm, 50 mM MOPS pH 7.5, 50 mM KCl, 5 mM MgCl2, 0.5 and 2.0 mg/mL protein, with 20 mM ATP (preincubated 55 °C 1 min)
[8] = system: T1, Nc1ncnc2c1ncn2[C@@H]1O[C@H](COP(=O)(O)OP(=O)(O)OP(=O)(O)O)[C@@H](O)[C@H]1O; experiment: purified protein; assay type: biochemical, Thermus thermophilus; conditions: Hill equation fit, Hill coefficient 2.6 ± 0.6, pH 7.5, 20 mM KCl, 5 mM MgCl2, 25 °C
T1 construct: N-terminal domain deletion (AAA1, M-domain and AAA2 kept); from plasmid pMCB1; expressed in E. coli BL21(DE3) or KRX; purified; hexamer and smaller oligomers

ΔN-TClpB (Thermus thermophilus HB8), sequence (chain, as listed by the source mutant): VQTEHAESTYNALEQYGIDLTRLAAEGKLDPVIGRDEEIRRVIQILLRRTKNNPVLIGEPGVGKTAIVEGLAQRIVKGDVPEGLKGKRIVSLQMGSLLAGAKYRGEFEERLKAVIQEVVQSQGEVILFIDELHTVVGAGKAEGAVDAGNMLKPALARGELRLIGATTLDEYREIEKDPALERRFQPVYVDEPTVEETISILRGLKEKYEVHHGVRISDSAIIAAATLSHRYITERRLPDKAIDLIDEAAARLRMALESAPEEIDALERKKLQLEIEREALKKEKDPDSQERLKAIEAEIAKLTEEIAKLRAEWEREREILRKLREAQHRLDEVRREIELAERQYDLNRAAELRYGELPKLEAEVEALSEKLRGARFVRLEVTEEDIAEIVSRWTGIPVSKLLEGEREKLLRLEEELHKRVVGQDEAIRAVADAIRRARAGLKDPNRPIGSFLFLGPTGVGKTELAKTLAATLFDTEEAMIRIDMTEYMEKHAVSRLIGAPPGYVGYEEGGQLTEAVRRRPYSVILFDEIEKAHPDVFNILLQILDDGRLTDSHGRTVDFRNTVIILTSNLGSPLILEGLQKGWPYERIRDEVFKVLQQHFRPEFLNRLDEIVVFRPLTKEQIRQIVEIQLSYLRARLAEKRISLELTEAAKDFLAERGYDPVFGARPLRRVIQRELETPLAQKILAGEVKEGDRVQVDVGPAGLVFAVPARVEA

stoichiometry N [1]: 6
Substance: ΔN-TClpB repressed mutant E423A (domain or fragment)

stoichiometry N [2]: 6
Substance: ΔN-TClpB hyperactive mutant Y494D (domain or fragment)

stoichiometry N [3]: 2 and 6
stoichiometry N [4]: 6
stoichiometry N [5]: 6 and 3 to 8 (2×)
stoichiometry N [6]: < 6
stoichiometry N [7]: 6 and 3
Substance: N-terminal deletion mutant of TClpB (ΔN-TClpB) (domain or fragment)

Substance: ΔN-TClpB (Thermus thermophilus HB8)
K0.5 [8]: 0.16 ± 0.02 mM
